Source: patent publication US9228020B2, “Compositions and methods for diagnosing and treating cancer” (OncoMed Pharmaceuticals, Inc., priority 2006, dated 2016)

B1: 21M18 H7L2: humanized 21M18, heavy chain Kabat position 52a serine (H7) with L2; ATCC deposit no. PTA-8425 (antibody, V domains shown)
VH: QVQLVQSGAEVKKPGASVKISCKASGYSFTAYYIHWVKQAPGQGLEWIGYISSYNGATNYNQKFKGRVTFTTDTSTSTAYMELRSLRSDDTAVYYCARDYDYDVGMDYWGQGTLVTVSS
VL: DIVMTQSPDSLAVSLGERATISCRASESVDNYGISFMKWFQQKPGQPPKLLIYAASNQGSGVPDRFSGSGSGTDFTLTISSLQAEDVAVYYCQQSKEVPWTFGGGTKVEIK
B2: 21M18 H9L2: humanized 21M18, heavy chain Kabat position 52a valine (H9) with L2; ATCC deposit no. PTA-8427 (antibody, V domains shown)
VH: QVQLVQSGAEVKKPGASVKISCKASGYSFTAYYIHWVKQAPGQGLEWIGYISVYNGATNYNQKFKGRVTFTTDTSTSTAYMELRSLRSDDTAVYYCARDYDYDVGMDYWGQGTLVTVSS
VL: DIVMTQSPDSLAVSLGERATISCRASESVDNYGISFMKWFQQKPGQPPKLLIYAASNQGSGVPDRFSGSGSGTDFTLTISSLQAEDVAVYYCQQSKEVPWTFGGGTKVEIK

Biological target: T1, DLL4 antigen (Homo sapiens, UniProt Q9NR61)
T1 construct: DLL4 antigen protein comprises approximately amino acid 27 through amino acid 522; made in house; host or cells: insect cells (baculovirus)
T1 sequence (Q9NR61 27-522): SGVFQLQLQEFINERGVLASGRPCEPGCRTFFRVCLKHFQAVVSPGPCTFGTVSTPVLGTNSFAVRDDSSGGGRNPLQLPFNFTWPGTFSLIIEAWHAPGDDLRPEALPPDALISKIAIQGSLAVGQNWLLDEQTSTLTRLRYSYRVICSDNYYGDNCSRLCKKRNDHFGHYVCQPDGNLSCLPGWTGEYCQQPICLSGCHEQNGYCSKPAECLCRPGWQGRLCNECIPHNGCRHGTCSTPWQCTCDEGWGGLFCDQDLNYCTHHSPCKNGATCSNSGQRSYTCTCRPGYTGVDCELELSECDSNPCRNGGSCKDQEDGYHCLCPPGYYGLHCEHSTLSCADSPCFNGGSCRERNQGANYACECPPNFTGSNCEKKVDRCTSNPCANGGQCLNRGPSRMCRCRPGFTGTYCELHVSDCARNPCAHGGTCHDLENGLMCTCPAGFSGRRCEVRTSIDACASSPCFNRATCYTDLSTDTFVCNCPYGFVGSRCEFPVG
Experiment: ELISA of conditioned media for DLL4 antigen binding (humanized variants)
Conditions: conditioned media of cotransfected HEK293 cells
Experimental: The functionality of each candidate variant humanized heavy and light chain was tested by cotransfection into mammalian cells. Each of the five candidate humanized 21M18 heavy chains described above was cotransfected with the murine 21M18 light chain cDNA into HEK 293 cells, and conditioned media was then assayed for DLL4 antigen binding activity by ELISA. […] This variant—“21M18 H2”—contained, in additional to murine CDRs, murine residues at five framework positions, Kabat positions 20, 28, 38, 48, and 69 (FIG. 4). The 21M18 H2 humanized heavy chain was then cotransfected with each of the five candidate humanized light chains into HEK293 cells, and conditioned media was again assayed for antigen binding by ELISA.
Next, the isolated cysteine residue in CDR2H2 (SEQ ID NO: 2) was altered. Specifically, two heavy chain variants of H2 were synthesized with the cysteine residue at Kabat position 52a modified to a serine (variant H7; SEQ ID NO: 3) or a valine (variant H9; SEQ ID NO: 4) residue. These heavy chains were cotransfected into HEK293 cells with L2, and conditioned media was again assayed. […] Thus 21M18 heavy chain CDR2 comprises SEQ ID NO: 2, 3, or 4 in which the residue at Kabat position 52a comprises a cysteine, serine, or valine residue.

Molecule	antigen binding by ELISA
B1	demonstrated specific antigen binding
B2	demonstrated specific antigen binding
